Data from PMC7039436.

Target: mono-ubiquitinated human FANCD2 (ubiquitin on Lysine 561) (human) (UniProt Q9BXW9)
Test: biotin affinity purification with 3C protease elution; in vitro ubiquitination reaction with Avi-ubiquitin loaded on avidin agarose, 2 hrs 4 °C, washed with 10 CV 50 mM Tris-HCl pH 7.4, 150 mM NaCl, 10% glycerol, 1 mM DTT; eluted overnight with 100 nM GST-HRV-3C; Coomassie gel

## mono-ubiquitinated human FANCI (ubiquitin on Lysine 523) (from UniProt Q9NVI1 1-1328; P0CG47 1-76) (natural protein)
  stoichiometry N: 1
